Experiments:
[1] = target: D. radiodurans PNPase lacking the S1 domain (D. radiodurans) (UniProt Q9RSR1); experiment: native gel or EMSA + other: negative stain electron microscopy
[2] = target: D. radiodurans PNPase lacking the KH domain (D. radiodurans) (UniProt Q9RSR1); experiment: as above
[3] = target: the molecule itself; experiment: glycerol gradient sedimentation

## D. radiodurans PNPase lacking the S1 domain (from UniProt Q9RSR1 1-779) (enzyme)
[1]
  stoichiometry N: 3

## D. radiodurans PNPase lacking the KH domain (from UniProt Q9RSR1 1-779) (enzyme)
[2]
  stoichiometry N: 3

B1: Salmonella Typhimurium PNPase fused to 3 copies of FLAG (FLAG3-pnp) (enzyme, S. Typhimurium, UniProt Q8ZLT3 1-711, looked up)
chain: MLNPIVRKFQYGQHTVTLETGMMARQATAAVMVSMDDTAVFVTVVGQKKAKPGQDFFPLTVNYQERTYAAGRIPGSFFRREGRPSEGETLIARLIDRPVRPLFPEGFVNEVQVIATVVSVNPQVNPDIVAMIGASAALSLSGIPFNGPIGAARVGYINDQYVLNPTQDELKESKLDLVVAGTEAAVLMVESEAELLSEDTMLGAVVFGHEQQQVVIQAINDLVKEAGKPRWDWQPEAVNDALNARVAALAESRLSDAYRITDKQERYAQVDVIKSETIEQLIAEDETLDANELGEILHAIEKNVVRSRVLAGEPRIDGREKDMIRGLDVRTGVLPRTHGSALFTRGETQALVTATLGTARDAQVLDELMGERTDSFLFHYNFPPYSVGETGMVGSPKRREIGHGRLAKRGVLAVMPDMDKFPYTVRVVSEITESNGSSSMASVCGASLALMDAGVPIKAAVAGIAMGLVKEGDNYVVLSDILGDEDHLGDMDFKVAGSRDGISALQMDIKIEGITKEIMQVALNQAKGARLHILGVMEQAINAPRGDISEFAPRIHTIKISTDKIKDVIGKGGSVIRALTEETGTTIEIEDDGTVKIAATDGEKAKYAIRRIEEITAEIEVGRIYNGKVTRIVDFGAFVAIGGGKEGLVHISQIADKRVEKVTDYLQMGQEVPVKVLEVDRQGRVRLSIKEATEQSQPAAAPEAPASEQAE
[3]
  stoichiometry N: 3
